Measured values taken from US20220119534A1 (DRAGONFLY THERAPEUTICS, published 2022).
Where “and” joins values, the source holds several entries; their conditions need not be identical. Identical values can stand only once.

Columns and labels:
[1] = molecular target: T1, Human CLEC12A-His (recombinant, K244 WT) (human, UniProt Q5QGZ9 65-265); test: SPR 37C, two-state fit, average
T1 construct: Made in house (Dragonfly Tx); also called hCLEC12A; hCLEC12A-His; not shown: His tag
T1 sequence: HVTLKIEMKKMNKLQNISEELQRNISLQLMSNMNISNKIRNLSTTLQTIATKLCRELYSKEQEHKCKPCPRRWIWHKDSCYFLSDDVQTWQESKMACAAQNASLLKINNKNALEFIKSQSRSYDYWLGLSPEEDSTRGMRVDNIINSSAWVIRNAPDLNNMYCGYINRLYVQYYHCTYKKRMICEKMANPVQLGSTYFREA

[2] = molecular target: T2, mFc-hNKG2D (recombinant mFc-tagged human NKG2D dimer) (human, UniProt P26718 73-216); test: SPR 37C, mFc-hNKG2D captured, 1:1 kinetic fit
T2 construct: extracellular domain; Made in house; not shown: mouse Fc tag
T2 sequence (looked up): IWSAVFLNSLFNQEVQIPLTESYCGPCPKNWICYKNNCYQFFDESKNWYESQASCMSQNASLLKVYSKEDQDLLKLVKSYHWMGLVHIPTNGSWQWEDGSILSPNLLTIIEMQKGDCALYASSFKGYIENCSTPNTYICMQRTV

Kd [1]: 0.74 nM
Kd [2]: 872 nM and 892 nM and 880 nM
koff [2]: 0.141 s⁻¹ and 0.142 s⁻¹ and 0.146 s⁻¹
kon [2]: 161000 M⁻¹ s⁻¹ and 159000 M⁻¹ s⁻¹ and 166000 M⁻¹ s⁻¹
B1: AB0089 TriNKET (bispecific antibody, human IgG1, kappa)
chain: QLQLQESGPGLVKPSETLSLTCTVSGFSLTNYGLHWIRQPPGKCLEWIGVIWVGGATDYNPSLKSRVTISVDTSKNQFSLKLSSVQAADTAVYYCAKGDYGDTLDYWGQGTLVTVSSGGGGSGGGGSGGGGSGGGGSDIQMTQSPSSLSASVGDRVTITCHASQNINFWLSWYQQKPGKAPKLLIYEASNLHTGVPSRFSGSGSGTDFTLTISSLQPEDFATYYCQQSHSYPLTFGCGTKLEIKGSDKTHTCPPCPAPELLGGPSVFLFPPKPKDTLMISRTPEVTCVVVDVSHEDPEVKFNWYVDGVEVHNAKTKPREEQYNSTYRVVSVLTVLHQDWLNGKEYKCKVSNKALPAPIEKTISKAKGQPREPRVYTLPPCRDELTKNQVSLTCLVKGFYPSDIAVEWESNGQPENNYKTTPPVLVSDGSFTLYSKLTVDKSRWQQGNVFSCSVMHEALHNHYTQKSLSLSPG
heavy: EVQLVESGGGLVKPGGSLRLSCAASGFTFSSYSMNWVRQAPGKGLEWVSSISSSSSYIYYADSVKGRFTISRDNAKNSLYLQMNSLRAEDTAVYYCARGAPIGAAAGWFDPWGQGTLVTVSSASTKGPSVFPLAPSSKSTSGGTAALGCLVKDYFPEPVTVSWNSGALTSGVHTFPAVLQSSGLYSLSSVVTVPSSSLGTQTYICNVNHKPSNTKVDKKVEPKSCDKTHTCPPCPAPELLGGPSVFLFPPKPKDTLMISRTPEVTCVVVDVSHEDPEVKFNWYVDGVEVHNAKTKPREEQYNSTYRVVSVLTVLHQDWLNGKEYKCKVSNKALPAPIEKTISKAKGQPREPQVCTLPPSRDELTENQVSLTCLVKGFYPSDIAVEWESNGQPENNYKTTPPVLDSDGSFFLYSWLTVDKSRWQQGNVFSCSVMHEALHNHYTQKSLSLSPG
light: DIQMTQSPSSVSASVGDRVTITCRASQGISSWLAWYQQKPGKAPKLLIYAASSLQSGVPSRFSGSGSGTDFTLTISSLQPEDFATYYCQQGVSFPRTFGGGTKVEIKRTVAAPSVFIFPPSDEQLKSGTASVVCLLNNFYPREAKVQWKVDNALQSGNSQESVTEQDSKDSTYSLSSTLTLSKADYEKHKVYACEVTHQGLSSPVTKSFNRGEC
notes: F3' format heterodimer of three chains; human IgG1 Fc with EW-RVT and Y349C/S354C mutations; also called AB0089 Lot AB0089-002; CLEC12A TriNKET AB0089
